Experimental findings from US20200299373A1 are described below.

For assay [1], the target named is recombinant human FAM19A5 protein (His-tagged) (human) (UniProt Q7Z5A7). Put plainly: two-site sandwich ELISA; capture antibody P2-F11; S/N = O.D. at 10 ng/mL antigen / O.D. at 0 ng/mL; O.D. in column 0 printed 0.14.
For assay [2] the target is unchanged. Nature of the assay: two-site sandwich ELISA; capture antibody 13B4; S/N = O.D. at 10 ng/mL antigen / O.D. at 0 ng/mL; O.D. in column 0 printed 0.22. In general terms: In an ELISA, binding on a coated surface is turned into a signal by an enzyme label.
The target is the same in assay [3]. Nature of the assay: two-site sandwich ELISA; capture antibody 2-13; biotinylated detection antibody P2-A03; antigen in ng/mL.
Assay [4] shares this target. Nature of the assay: two-site sandwich ELISA; capture antibody 3-2; biotinylated detection antibody P2-A03; antigen in ng/mL.
Assay [5] has the same target. Put plainly: two-site sandwich ELISA; capture antibody 2-13; S/N = O.D. at 10 ng/mL antigen / O.D. at 0 ng/mL; O.D. in column 0 printed 0.22.
Assay [6] has the same target. Put plainly: ELISA on N'-Term His FAM19A5, fit of the titration (OD 492 nm); R2 printed 0.9746.
Assay [7] shares this target. Put plainly: two-site sandwich ELISA; capture antibody 1-65; S/N = O.D. at 10 ng/mL antigen / O.D. at 0 ng/mL; O.D. in column 0 printed 0.15.
For assay [8] the target is unchanged. Put plainly: two-site sandwich ELISA; capture antibody 3-2; S/N = O.D. at 10 ng/mL antigen / O.D. at 0 ng/mL; O.D. in column 0 printed 0.16.
For assay [9] the target is unchanged. Nature of the assay: two-site sandwich ELISA; capture antibody 13B4; biotinylated detection antibody P2-A03; antigen in ng/mL.
For assay [10] the target is unchanged. Nature of the assay: two-site sandwich ELISA; capture antibody 1-65; biotinylated detection antibody P2-A03; antigen in ng/mL.
For assay [11] the target is unchanged. Put plainly: ELISA on N'-Term His FAM19A5, fit of the titration; R2 printed 0.9746.
Assay [12] has the same target. Put plainly: two-site sandwich ELISA; capture antibody P2-F11; biotinylated detection antibody P2-A03; antigen in ng/mL.
Assay [13] addresses T1, F2-03-BSA (human).
T1 chain: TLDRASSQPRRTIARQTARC
Put plainly: ELISA on mutant F2 peptide-BSA #3. Particulars: remark: other sources report otherwise.

Assay [14] concerns the target recombinant human FAM19A5 protein (His-tagged) (human) (UniProt Q7Z5A7). Nature of the assay: ELISA on coated FAM19A5, as in Example 6.
For assay [15] the target is unchanged. Nature of the assay: ELISA on N'-Term His FAM19A5, fit of the titration (OD 492 nm); R2 printed 0.8703.
Assay [16] has the same target. Put plainly: two-site sandwich ELISA; capture antibody 13B4; biotinylated detection antibody P2-F11; antigen in ng/mL.
Assay [17] shares this target. Put plainly: two-site sandwich ELISA; capture antibody 1-65; S/N = O.D. at 10 ng/mL antigen / O.D. at 0 ng/mL; O.D. in column 0 printed 0.12.
For assay [18] the target is unchanged. Put plainly: two-site sandwich ELISA; capture antibody 2-13; S/N = O.D. at 10 ng/mL antigen / O.D. at 0 ng/mL; O.D. in column 0 printed 0.29.
Assay [19] has the same target. Nature of the assay: two-site sandwich ELISA; capture antibody 1-65; biotinylated detection antibody P2-F11; antigen in ng/mL.
Assay [20] has the same target. Nature of the assay: two-site sandwich ELISA; capture antibody 13B4; S/N = O.D. at 10 ng/mL antigen / O.D. at 0 ng/mL; O.D. in column 0 printed 0.18.
Assay [21] has the same target. Put plainly: two-site sandwich ELISA; capture antibody 2-13; biotinylated detection antibody P2-F11; antigen in ng/mL.
For assay [22] the target is unchanged. Put plainly: ELISA on N'-Term His FAM19A5, fit of the titration; R2 printed 0.9692.
The target is the same in assay [23]. Put plainly: ELISA on N'-Term His FAM19A5, fit of the titration (OD 492 nm); R2 printed 0.9692.
The target is the same in assay [24]. Put plainly: two-site sandwich ELISA; capture antibody P2-A03; biotinylated detection antibody P2-F11; antigen in ng/mL.
For assay [25] the target is unchanged. Put plainly: two-site sandwich ELISA; capture antibody 3-2; biotinylated detection antibody P2-F11; antigen in ng/mL.
Assay [26] has the same target. Put plainly: two-site sandwich ELISA; capture antibody 3-2; S/N = O.D. at 10 ng/mL antigen / O.D. at 0 ng/mL; O.D. in column 0 printed 0.13.
The target is the same in assay [27]. Put plainly: two-site sandwich ELISA; capture antibody P2-A03; S/N = O.D. at 10 ng/mL antigen / O.D. at 0 ng/mL; O.D. in column 0 printed 0.09.

B1: anti-FAM19A5 antibody P2-A03 (antibody, V domains shown)
VH: QSVEESGGRLVTPGTPLTLTCTVSGFSLNNYDMSWVRQAPGKGLEYIGFMDTDGSAYYATWAKGRFTISRTSTTVDLKMTSPTTEDTATYFCARRGSSYYGGIDIWGPGTPVTVSL
VL: ELDLTQTPASVSEPVGGTVTIKCQASQSIGGNLAWYQQKPGQPPKLLIYRASTLASGVPSRFKGSGSGTDFTLTISDLECADAATYYCQSPAYDPAAYVGNAFGGGTELEILR
modifications: Biotinylated when used as detection antibody in FIG. 6B.
What is called Kd is the free concentration of one partner at which half of the binding sites on the other are occupied at equilibrium, for simple one-to-one binding. As to B1, the S/N stood at 1.1 in [1]; 1 in assay [2]; 7.8 in assay [5]; 1 in assay [7]; 10 in assay [8]. Besides, the O.D., antigen 100 in assay [3] worked out at 1.88; in assay [4] it was 1.91; in assay [9], 0.27; in assay [10], 0.16; in [12], 0.15. Besides, the O.D., antigen column 10 turned out to be 1.72 in assay [3]; 1.66 in assay [4]; 0.22 in assay [9]; 0.15 in assay [10]; 0.15 in [12]. For the same molecule, the Bmax in assay [6] worked out at 3.37. The Kd in assay [11] amounted to 0.61 nM.

B2: anti-FAM19A5 antibody 1-28 (antibody, V domains shown)
VH: AVTLDESGGGLQTPGGALSLVCKASGFDFSDYGMGWVRQAPGKGLEWVAAIRSDGSNPSYGSAVKGRATISKDNGRSTVRLQLNNLRAEDTATYYCAKDGNGYCALDAYRSGGYSCGVYPGSIDAWGHGTEVIVSS
VL: ALTQPSSVSANLEGTVEITCSGSGYGYGWYQQKSPGSAPVTVIYQNDKRPSDIPSRFSGSKSGSTGTLTITGVQVEDEAVYYCGSEDSSTLAGIFGAGTTLTVL
modifications: here or on the partner: conjugated to BSA
B2 displayed an O.D (492nm) in [13] of 0.055. In addition, the Kd in assay [14] is 0.17 nM. In [15], the Bmax came to 2.94.

B3: anti-FAM19A5 antibody P2-F11 (antibody, V domains shown)
VH: QEQLVESGGRLVTPGTTLTLTCTVSGFSLSSYGVSWVRQAPGKGLEWIGYIANNYNPHYASWAKGRFTISKTSSTTVDLKMTSLTTEDTATYFCARDNYGMDPWGPGTLVTVSS
VL: ELDLTQTPSSVSAAVGGTVTINCQASQSVYNNKNLAWYQQKPGQPPKLLIYAASTLASGVSSRFKGSGSGTQFTLTISDVQCDDAATYYCQGEFSCSSADCNAFGGGTELEILR
modifications: Biotinylated when used as detection antibody in FIG. 6B.
Take B3: the O.D., antigen 100 is 0.2 in assay [16]; 1.25 in assay [19]; 1.83 in assay [21]; 0.09 in assay [24]; 2.02 in assay [25]. The O.D., antigen column 10 in [16] was 0.18; in assay [19], 0.2; in assay [21], 2.04; in assay [24] it was 0.09; in assay [25], 1.81. In addition, the S/N in assay [17] turned out to be 1.7; in assay [18] it was 7; in assay [20], 1; in [26] it was 13.9; in assay [27], 1. In addition, in assay [22], the Kd was 0.41 nM. In assay [23], the Bmax turned out to be 3.26.
